Assay [1] addresses chimeric receptor: extracellular and transmembrane portions of the mouse type I IL-1 receptor fused to the cytoplasmic portion of human 2F1 (mouse; human) (UniProt P13504). Description: cell-based or functional assay. The note with it: scale: fold of the level mediated by the intact mouse type I IL-1R.
Assay [2] deals with T1, soluble type I IL-1RI/Fc fusion protein (extracellular domain of human type I IL-1R fused to the Fc region … (human, UniProt P14778 18-336)).
T1 construct: extracellular domain; Positive control in the BIAcore assay; also called human type I IL-1R/Fc fusion protein; not shown: Fc region polypeptide (human IgG1, as for 2F1/Fc)
T1 sequence (looked up): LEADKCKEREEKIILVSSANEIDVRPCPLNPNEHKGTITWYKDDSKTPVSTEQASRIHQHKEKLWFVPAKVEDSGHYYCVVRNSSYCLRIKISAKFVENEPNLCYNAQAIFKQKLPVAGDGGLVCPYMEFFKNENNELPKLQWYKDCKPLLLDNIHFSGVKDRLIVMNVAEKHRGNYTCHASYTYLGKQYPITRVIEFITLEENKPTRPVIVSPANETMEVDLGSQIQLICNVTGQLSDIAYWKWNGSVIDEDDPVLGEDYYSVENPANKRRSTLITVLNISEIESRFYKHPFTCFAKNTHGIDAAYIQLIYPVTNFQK
Description: BIAcore; Fc fusion captured by anti-human IgG Fc serum. From the text: (§1) A BIAcore biosensor (Pharmacia Biosensor AB, Piscataway, N.J.) was used to examine binding of IL-1 ligands to the human 2F1/Fc fusion protein, using procedures essentially as described in Arend et al. (*J. Immunol.* 153: 4766–4774, 1994). Briefly, a goat anti-human IgG serum directed against the Fc region (Jackson Immunoresearch Laboratories, Inc., West Grove, Pa.), covalently coupled to the dextran matrix of a hydrogel chip, was used to capture the human 2F1/Fc protein. The 2F1/Fc fusion protein thus was immobilized on the BIAcore chip. The three IL-1 ligands, at several different concentrations, were reacted with the captured protein, and the change of mass per unit area over time was measured.

Assay [3] concerns the target T2, 2F1/Fc soluble fusion protein (human 2F1 extracellular domain joined to the Fc region of a human IgG1) (human, UniProt Q13478 20-329).
T2 construct: Captured on the BIAcore chip by goat anti-human IgG Fc serum; also called human 2F1/Fc fusion protein; 2F1/Fc protein; not shown: Fc region of a human IgG1; made by procedures analogous to Baum et al. 1994
T2 sequence: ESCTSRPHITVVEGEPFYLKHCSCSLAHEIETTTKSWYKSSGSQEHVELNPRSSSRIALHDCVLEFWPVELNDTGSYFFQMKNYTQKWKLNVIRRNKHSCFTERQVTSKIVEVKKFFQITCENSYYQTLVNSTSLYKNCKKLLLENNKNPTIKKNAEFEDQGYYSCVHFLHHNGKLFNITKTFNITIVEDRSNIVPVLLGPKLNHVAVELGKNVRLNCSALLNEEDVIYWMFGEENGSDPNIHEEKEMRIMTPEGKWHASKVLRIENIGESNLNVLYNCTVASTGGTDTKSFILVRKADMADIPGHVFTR
Briefly: BIAcore; 2F1/Fc captured by anti-human IgG Fc serum, ligand at several different concentrations.
Text: as §1

Chain of chimeric receptor: extracellular and transmembrane portions of the mouse type I IL-1 receptor fused to the cytoplasmic portion of human 2F1 (mouse; human) (P13504 other isoform, or with tags, fused parts or gaps mutant, form in doubt): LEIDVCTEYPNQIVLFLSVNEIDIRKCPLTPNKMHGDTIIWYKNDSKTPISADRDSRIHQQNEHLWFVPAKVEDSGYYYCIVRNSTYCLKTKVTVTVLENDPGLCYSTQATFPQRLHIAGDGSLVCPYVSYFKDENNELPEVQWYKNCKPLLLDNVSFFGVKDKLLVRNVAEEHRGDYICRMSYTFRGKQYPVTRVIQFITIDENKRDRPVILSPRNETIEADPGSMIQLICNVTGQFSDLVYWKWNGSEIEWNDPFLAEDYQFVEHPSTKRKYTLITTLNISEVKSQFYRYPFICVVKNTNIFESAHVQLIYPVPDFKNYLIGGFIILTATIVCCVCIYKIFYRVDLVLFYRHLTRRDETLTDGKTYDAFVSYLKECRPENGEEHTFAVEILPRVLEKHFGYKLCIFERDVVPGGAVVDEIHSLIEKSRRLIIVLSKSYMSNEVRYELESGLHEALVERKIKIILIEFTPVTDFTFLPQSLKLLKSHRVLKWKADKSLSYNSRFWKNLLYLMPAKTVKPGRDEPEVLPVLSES

B1: human IL-1α (ligand, UniProt P01583 113-271, looked up)
chain: SAPFSFLSNVKYNFMRIIKYEFILNDALNQSIIRANDQYLTAAALHNLDEAVKFDMGAYKSSKDDAKITVILRISKTQLYVTAQDEDQPVLLKEMPEIPKTITGSETNLLFFWETHGTKNYFTSVAHPNLFIATKQDYWVCLAGGPPSITDFQILENQA
B1 came in with an induction of IL-8 promoter function (IL-2Rα reporter, COS7 cells) in assay [1] of 0.5. The binding result is “binds” in assay [2] and “no binding” in assay [3].

The record behind these values is US7235238 (IMMUNEX, dated 2007).
